Consider one substance from paper doi:10.1101/2024.01.29.577165.

In test [1] the target is Grappling Hook Protein A (GhpA), assembled as the grappling hook (Aureispira sp. CCB-QB1). The test can be described thus: cryo-EM structure.
Test [2] shares this target. Briefly: cryo-electron tomography with subtomogram averaging.

The stoichiometry N is the number of molecules, sites or subunits per partner or assembly. As for “Grappling Hook Protein A (GhpA), assembled as the grappling hook (natural protein)”, the stoichiometry N in test [1] and in test [2] was 7 each time.
